# Assay results as given in the supplement of paper PMC10126150.
# ± gives the standard deviation of the averaged measurements.
# System: ATP
# Assay: switch fluorescence ratio, 500 uM ATP over buffer (Cy3 cluster intensity, sum of 5 cycles each) (fold (ratio)); higher = stronger signal-on switching upon ATP binding; sequences stand for … in TCGTCGGCAGCGTCAGATGTGTATAAGAGACAGTTTTTTTTTTTTTTTTTTTTTTTTT…TC
# Conditions: aptamer strand: ATP DNA aptamer (quencher-CACCTGGGGGAGTATTGCGGAGGAAGG + anchor), 100 nM annealed; ATP concentration: 500 uM
# In short: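 Clusters with intensities outside 100-1000 RFU were excluded. The remaining Cy3-labelled switching-strand clusters on a modified Illumina MiSeq flow-cell had been annealed to 100 nM quencher-labelled ATP aptamer and imaged in selection buffer, then after 15 min with 500 uM ATP at 22 °C, for five cycles separated by NaOH stripping and re-annealing. The fluorescence ratio, averaged per switch-domain sequence, is each cluster's summed target-cycle Cy3 intensity over its summed buffer-cycle Cy3 intensity.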
# 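Further: ATP exposure 15 min at 22 °C before imaging.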
row,Sequence,switch fluorescence ratio
1,TCCTCCGTGG,2.56 ± 0.59
2,TCCTGACGTA,1.11 ± 0.022
3,TCCTGATGGC,0.985 ± 0.016
4,TCCTGCGCGT,4.52 ± 0.71
5,TCCTGGGCTA,1.57 ± 0.019
6,TCCTGGGGGA,1.15 ± 0.22
7,TCCTGTGCTG,1.09 ± 0.043
8,TCCTGTTTTT,1.01 ± 0.056
9,TCCTTAAAAA,1.1 ± 0.06
10,TCCTTAATTT,1.02 ± 0.055
11,TCCTTCAACT,1.08 ± 0.045
12,TCCTTGACTT,1.15 ± 0.26
13,TCCTTGGAGG,0.989 ± 0.028
14,TCCTTTAATG,0.9917 ± 0.0073
15,TCCTTTAGGT,0.993 ± 0.053
16,TCCTTTGTGG,1.02 ± 0.021
17,TCGAAGAATG,1.005 ± 0.002
18,TCGAAGGGTT,0.993 ± 0.028
19,TCGAAGTAGG,1.46 ± 0.71
20,TCGAAGTGTT,0.989 ± 0.027
21,TCGACATTAT,1.034 ± 0.0055
22,TCGACGTCTC,1.29 ± 0.16
23,TCGACGTTGT,1.1 ± 0.036

row,Sequence,switch fluorescence ratio
1,TCGACGTTTG,1.01 ± 0.011
2,TCGACTCACT,1.2 ± 0.013
3,TCGAGAGATA,1 ± 0.054
4,TCGAGGACTA,0.999 ± 0.032
5,TCGAGGCGGA,0.985 ± 0.049
6,TCGAGGGCAG,1.01 ± 0.029
7,TCGAGGGGGA,1.31 ± 0.63
8,TCGAGTAAGG,1.18 ± 0.28
9,TCGAGTCATT,0.9913 ± 0.005
10,TCGAGTCCTA,0.9857 ± 0.0037
11,TCGAGTGTGC,1.06 ± 0.021
12,TCGAGTTCTT,0.999 ± 0.012
13,TCGATCCAAC,1.064 ± 0.0065
14,TCGATGAGGG,1.02 ± 0.026
15,TCGATGGCAT,1.31 ± 0.065
16,TCGATGGCTT,1.05 ± 0.019
17,TCGATGGGTG,1.01 ± 0.032
18,TCGATGTCGT,0.9927 ± 0.0059
19,TCGATTAATT,1.1 ± 0.079
20,TCGATTTGAT,0.98541 ± 0.00062
21,TCGCAAAATA,2.47 ± 1.2
22,TCGCAATGTT,3.58 ± 1
23,TCGCAGGGTG,1.43 ± 0.47

row,Sequence,switch fluorescence ratio
1,TCGCCATCCT,1.09 ± 0.019
2,TCGCCTTTGG,1.07 ± 0.072
3,TCGCGAAATT,0.9763 ± 0.0042
4,TCGCGAAGGG,1.01 ± 0.013
5,TCGCGATCAG,1.12 ± 0.042
6,TCGCGCCGGT,1.005 ± 0.0062
7,TCGCGGAATT,1.01 ± 0.066
8,TCGCGGCAGT,1.04 ± 0.015
9,TCGCGGGAGA,1.05 ± 0.023
10,TCGCGGGGGA,1.01 ± 0.037
11,TCGCGGGGTG,1.02 ± 0.056
12,TCGCGGGTGG,1.03 ± 0.021
13,TCGCTACTCG,3.07 ± 0.62
14,TCGCTCGCAT,3.68 ± 0.73
15,TCGCTTACTG,1.3 ± 0.053
16,TCGCTTTGCT,1.31 ± 0.42
17,TCGCTTTTTT,1.03 ± 0.068
18,TCGGAATCTG,1 ± 0.1
19,TCGGACCCTA,1.03 ± 0.041
20,TCGGACGTCG,1.07 ± 0.019
21,TCGGACGTGC,1.35 ± 0.1
22,TCGGAGTAAC,1.667 ± 0.0081
23,TCGGAGTTTA,1.04 ± 0.016

row,Sequence,switch fluorescence ratio
1,TCGGATAGGT,1.02 ± 0.025
2,TCGGATGTCA,0.965 ± 0.049
3,TCGGATTAGT,1 ± 0.025
4,TCGGATTGTG,1.01 ± 0.021
5,TCGGCAATGT,2.32 ± 1.6
6,TCGGCAGGGG,1.09 ± 0.035
7,TCGGCCATGG,0.985 ± 0.031
8,TCGGCGGACA,1 ± 0.023
9,TCGGCGGTTT,0.977 ± 0.058
10,TCGGCTATGA,1.03 ± 0.021
11,TCGGGAACGA,0.999 ± 0.028
12,TCGGGACATC,1.03 ± 0.032
13,TCGGGAGCCT,0.973 ± 0.015
14,TCGGGAGGGG,0.989 ± 0.033
15,TCGGGAGTAC,1.01 ± 0.015
16,TCGGGATCTG,0.997 ± 0.018
17,TCGGGATGGC,1.03 ± 0.024
18,TCGGGATTTA,1.02 ± 0.033
19,TCGGGCAGGT,1.06 ± 0.064
20,TCGGGGATCG,1.006 ± 0.0025
21,TCGGGGCCAA,0.991 ± 0.019
22,TCGGGGGAAT,1.11 ± 0.14
23,TCGGGGGCTG,0.9799 ± 0.0077

row,Sequence,switch fluorescence ratio
1,TCGGGGGGCA,0.992 ± 0.028
2,TCGGGGGTCC,1 ± 0.066
3,TCGGGGTAGC,0.974 ± 0.025
4,TCGGGGTCGG,1.03 ± 0.016
5,TCGGGGTCGT,0.9859 ± 0.0065
6,TCGGGGTTA,0.979 ± 0.029
7,TCGGGGTTCA,1.04 ± 0.03
8,TCGGGGTTGT,1.01 ± 0.087
9,TCGGGTAAGC,1.014 ± 0.0052
10,TCGGGTACGT,0.967 ± 0.032
11,TCGGGTAGGG,0.991 ± 0.025
12,TCGGGTCTGC,1.01 ± 0.015
13,TCGGGTTGTA,1 ± 0.025
14,TCGGGTTTAG,1.04 ± 0.04
15,TCGGGTTTGG,1.01 ± 0.041
16,TCGGTACGG,1.07 ± 0.017
17,TCGGTAGGGG,0.999 ± 0.025
18,TCGGTATATG,0.991 ± 0.011
19,TCGGTATGAG,0.9698 ± 0.0027
20,TCGGTCCAGG,1.39 ± 0.14
21,TCGGTGCGAC,1.04 ± 0.032
22,TCGGTGTGAG,1.01 ± 0.03
23,TCGGTGTGCG,1.03 ± 0.033

row,Sequence,switch fluorescence ratio
1,TCGGTGTGCT,1.06 ± 0.064
2,TCGGTTAGT,0.96 ± 0.054
3,TCGGTTCGTG,1.01 ± 0.054
4,TCGGTTTATA,0.997 ± 0.01
5,TCGGTTTGGA,1.019 ± 0.0063
6,TCGGTTTGGT,1.01 ± 0.024
7,TCGTAAGAAA,1.01 ± 0.043
8,TCGTACAGTT,1.03 ± 0.02
9,TCGTACGTTT,1.04 ± 0.021
10,TCGTAGCTAA,4.37 ± 0.23
11,TCGTAGGCCT,0.981 ± 0.061
12,TCGTAGGGTC,0.982 ± 0.047
13,TCGTATCGGG,1 ± 0.034
14,TCGTATCGTA,0.975 ± 0.013
15,TCGTATGCGT,1.11 ± 0.25
16,TCGTATGTTT,0.985 ± 0.021
17,TCGTCAAAGA,1.07 ± 0.023
18,TCGTCATTGC,1.22 ± 0.037
19,TCGTCGGGGC,1.03 ± 0.029
20,TCGTCGTACG,1.02 ± 0.021
21,TCGTCGTAGG,1.01 ± 0.03
22,TCGTGAACGT,0.978 ± 0.011
23,TCGTGCAACA,0.983 ± 0.025

row,Sequence,switch fluorescence ratio
1,TCGTGCTGCG,1.0004 ± 0.00051
2,TCGTGGAGGT,0.985 ± 0.036
3,TCGTGGGGGA,1.02 ± 0.028
4,TCGTGGGGGT,0.979 ± 0.045
5,TCGTGGGGTT,1.02 ± 0.012
6,TCGTGGTCTG,0.999 ± 0.036
7,TCGTGTAAAC,0.981 ± 0.028
8,TCGTGTATTG,0.984 ± 0.026
9,TCGTGTTCTG,1.01 ± 0.029
10,TCGTGTTTCA,1 ± 0.014
11,TCGTTACAGA,1.02 ± 0.045
12,TCGTTATGGA,0.987 ± 0.035
13,TCGTTATTTT,1.04 ± 0.052
14,TCGTTCACTG,0.9891 ± 0.007
15,TCGTTCAGGA,0.995 ± 0.013
16,TCGTTCCGGT,1.02 ± 0.026
17,TCGTTGAGGG,0.96 ± 0.036
18,TCGTTGATGT,1 ± 0.049
19,TCGTTGTTAG,0.992 ± 0.02
